The target in test [1] is T. brucei coronin coiled-coil domain V493I–V507M (T. brucei) (UniProt Q57W63). As to the kind of experiment: crystal structure.
In test [2] the target is T. brucei coronin coiled-coil domain (T. brucei) (UniProt Q57W63). The test can be described thus: SAXS.
Test [3] has the same target. The test can be described thus: SEC.
Test [4] has the same target. As to the kind of experiment: crystal structure.
The target is the same in test [5]. The test can be described thus: cross-linking.
In test [6] the target is T. brucei coronin coiled-coil domain V507M (T. brucei) (UniProt Q57W63). The test can be described thus: crystal structure.

In turn, “T. brucei coronin coiled-coil domain V493I–V507M (from UniProt Q57W63 477-523) (domain or fragment)” returned a stoichiometry N in test [1] of 4.
For “T. brucei coronin coiled-coil domain (from UniProt Q57W63 477-523) (domain or fragment)”, the stoichiometry N in test [2], in test [3], in test [4] and in test [5] was 4 throughout.
Turning to “T. brucei coronin coiled-coil domain V507M (from UniProt Q57W63 477-523) (domain or fragment)”, the stoichiometry N in test [6] was 4.

For orientation: stoichiometry N means a count of units in the complex or per binding partner.

Source of the values: publication PMC8554105.
